Experimental data taken from patent US20050221381A1, “Method for isolating ligands” (priority 2002, published 2005).
“Also recorded” adds a separate entry of the source. Where two headings read alike, the source gives them in different places.

Assays:
[1] = tested on: PBMC from CMV seropositive donors; format: cell-based, human
[2] = target: T1, soluble DRB1*0404 molecules (Homo sapiens, UniProt P01903+P01911, A100R/A169T/F76Y/I96L/K127E/L162R/M171V/N62H/P40V/Q125Y/R42H/S133A/S149N/S66Y/V209L/W38E); test: Peptide binding assay, SDS-stability assay
T1 construct: Soluble HLA class I A*0201 and HLA class II DRA1*0101/DRB1*0101/Ii, DRA1*0101/DRB1*0401/Ii and DRA1*0101/DRB1*0404/Ii molecules were expressed in SC-2 cells; made in house; host or cells: SC-2 cells

[3] = target: T1, soluble DRB1*0404 molecules; test: Peptide binding assay, SDS-stability assay; set-up: key: −: no binding; +/−: weak binding; +: intermediate binding; ++: strong binding; details: individual pp65 15mer
[4] = tested on: PBMC (CD4 and CD8 positive T-cell compartments); test: Intracellular IFN-γ staining combined with surface staining for CD4, CD8, CD69 (FACS); format: cell-based, human; details: donor 10788, peptide 80 μg/ml (FIG. 11)
Method: To distinguish between CD8-positive CTL mediated or CD4-positive HTL mediated reactivity, intracellular cytokine staining combined with staining for surface markers was performed: after thawing, PBMNC were kept overnight (37° C., 5% CO2) in RPMI1640 with 10% human serum type AB (BioWhittaker). Next day aliquots of 2 million PBMNC were incubated with peptide (80 μg/ml) or Concanavalin A (SIGMA). After 1 h, 10 μg/ml brefeldin A (SIGMA) were added and incubation was continued for 5 hours. Surface staining for CD4 (phycoerythrin), CD8 (cychrome), CD69 (allophycocyanine) was done with antibodies labelled as indicated (Pharmingen, San Diego, Calif., USA). After fixation with 1% para-formaldehyde in PBS, cells were permeabilized by incubating for 15 min in 0.5% BSA/0.1% Na-azide/0.1% saponin in PBS. Intracellular cytokines were stained with anti-IFN-γ (FITC) antibody 4S.B3 (Pharmingen). Samples (100,000 events in the lymphocyte gate) were read on a FACScalibur (Becton Dickinson).
FIG. 11: Confirmation of simultaneous CD4+ and CD8+ T-cell responses against CMVpp65 15mers 469, 470 by intracellular IFN-γ staining. PBMC from 2 donors (10687, 10788) were stimulated with either ConA as positive control (1st column), 15mers containing both putative class I and class II epitopes (columns 2 and 3) or medium as negative control (right column). Cells were stained for intracellular IFN-γ (x-axis) or surface the T-cell differentiation markers CD4 or CD8 (y-axis). Percentage in upper-right quadrant is indicated, numbers significant over background are shown boldface.

[5] = target: T2, soluble DRB1*0401 molecules (DR4) (Homo sapiens, UniProt P01903+P01911, A100K/A169T/F76Y/I96L/K127E/L162R/M171V/N62H/P40V/Q125Y/R42H/S133A/S149N/S66Y/V115G/V209L/W38E); format: binding; set-up: key: +++: high binding affinity; ++: moderate binding affinity; +: low binding affinity; −: no binding
T2 construct: Soluble HLA class I A*0201 and HLA class II DRA1*0101/DRB1*0101/Ii, DRA1*0101/DRB1*0401/Ii and DRA1*0101/DRB1*0404/Ii molecules were expressed in SC-2 cells; made in house; host or cells: SC-2 cells

[6] = tested on: DRB1*0401, DRB1*0101, DRB1*0404, DRB1*0701 and DRB1*1101; test: Binding to soluble HLA molecules of different allels (promiscuity); set-up: species or system human
[7] = target: T3, soluble DRB1*0101 molecules (Homo sapiens, UniProt P01903+P01911, A100R/D57E/F55L/F60I/F76Y/I96L/L162R/M171V/P40L/Q125E/R42F/V115G/Y59C); test: Peptide binding assay, SDS-stability assay; set-up: key: −: no binding; +/−: weak binding; +: intermediate binding; ++: strong binding; details: individual pp65 15mer
T3 construct: Soluble HLA class I A*0201 and HLA class II DRA1*0101/DRB1*0101/Ii, DRA1*0101/DRB1*0401/Ii and DRA1*0101/DRB1*0404/Ii molecules were expressed in SC-2 cells; made in house; host or cells: SC-2 cells

[8] = target: T3, soluble DRB1*0101 molecules; test: Peptide binding assay, SDS-stability assay; set-up: key: +++: high binding affinity; ++: moderate binding affinity; +: low binding affinity; −: no binding; details: individual pp65 15mer
[9] = target: T3, soluble DRB1*0101 molecules; test: Peptide binding assay, SDS-stability assay; set-up: key: −: no binding/T cell response; +/−: weak binding/T cell response; +: intermediate binding/T cell response; ++: strong binding/T cell response; details: soluble DRB1*0101 molecules
[10] = target: T2, soluble DRB1*0401 molecules (DR4); format: binding; set-up: key: −: no binding; +/−: weak binding; +: intermediate binding; ++: strong binding; details: individual pp65 15mer, SDS-stability assay
[11] = target: T2, soluble DRB1*0401 molecules (DR4); format: binding; set-up: key to Binding to DRB1 *0401: −: no binding/T cell response; +/−: weak binding/T cell response; +: intermediate binding/T cell response; ++: strong binding/T cell response; details: soluble DRB1*0401 molecules
[12] = target: T1, soluble DRB1*0404 molecules; test: Peptide binding assay, SDS-stability assay; set-up: key: −: no binding/T cell response; +/−: weak binding/T cell response; +: intermediate binding/T cell response; ++: strong binding/T cell response; details: soluble DRB1*0404 molecules
[13] = target: T1, soluble DRB1*0404 molecules; test: Peptide binding assay, SDS-stability assay; set-up: key: +++: high binding affinity; ++: moderate binding affinity; +: low binding affinity; −: no binding; details: individual pp65 15mer
[14] = tested on: HLA-DRB1*0401-transgenic mice splenocytes; format: in vivo, mouse; set-up: key to DRB1*0401 mice total SC (T cell response) / DRB1*0401 mice CD4+ (T cell response): −: no binding/T cell response; +/−: weak binding/T cell response; +: intermediate binding/T cell response; ++: strong binding/T cell response; details: IFN-gamma ELISpot, ex vivo re-stimulation; for DRB1*0401 mice CD4+ (T cell response): enriched CD4+ fraction of splenocytes of HLA-DR4 transgenic mice vaccinated with the longer peptide; for DRB1*0401 mice total SC (T cell response): total splenocytes of HLA-DR4 transgenic mice vaccinated with the longer peptide
[15] = individual pp65 15mer, SDS-stability assay

Row | Sequence | Induction of IFN-gamma secretion in T cells / PBMC from CMV seropositive donors [1] | Binding to DRB1*0404 (in words) [2] | Binding to DRB1*0404 [3] | Intracellular IFN-γ in CD4 and CD8 positive T-cell compartments [4] | Binding to DRB1*0401 [5, 15] | Affinity for several HLA molecules (promiscuity) [6] | Binding to DRB1*0101 [7] | Binding to DRB1 *0401 [11] | DRB1*0401 mice CD4+ (T cell response) [14] | DRB1*0401 mice total SC (T cell response) [14] | also measured
1 | DEDSDNEIHNPAVFT [Peptide 469] | induce IFN-gamma secretion; also recorded: can induce functional, IFN-gamma secreting T cells in humans; also recorded: induce INF-gamma production | found to bind to DRB1*0404; also recorded: weakly binding to DRB1*0404 | +/− | significant IFN-γ secretion in both the CD8 and CD4 positive T-cell compartments | − |  |  |  |  |  | 
2 | EDSDNEIHNPAVFTW [Peptide 470] | induce IFN-gamma secretion; also recorded: can induce functional, IFN-gamma secreting T cells in humans; also recorded: induce INF-gamma production | found to bind to DRB1*0404; also recorded: weakly binding to DRB1*0404 | +/− | significant IFN-γ secretion in both the CD8 and CD4 positive T-cell compartments | − | affinity for at least two HLA molecules |  |  |  |  | 
3 | LVPMVATVQGQNLKY [Peptide 496] |  |  | + |  | − | affinity for at least two HLA molecules | + |  |  |  | 
4 | LVSQYTPDSTPCHRG [Peptide 57] | induce INF-gamma production |  |  |  |  |  |  | ++ | + | ++ | Binding to DRB1*0101 [8]: −; T-cell responses, IFN-γ ELIspot ([1]; donor 10788 (FIG. 10)): strong T-cell responses; Binding to DRB1*0101 [9]: −; Binding to DRB1*0401 [10]: ++; Binding to DRB1*0404 [12]: −; Binding to DRB1*0404 [13]: −
5 | MSIYVYALPLKMLNI [Peptide 109] |  |  |  |  |  |  | + |  |  |  | Binding to DRB1*0401 [5]: −
6 | WKEPDVYYTSAFVFP [Peptide 175] |  |  |  |  | − |  | + | − | + | + | 
